± gives the standard deviation of the averaged measurements.
Test: total protein half-life in vivo (active degradation + dilution); higher = more stable protein
[1] = E. coli NCM3722 delta-clpP delta-lon delta-hslV, growth: N-lim chemostat, doubling time 6 h
[2] = E. coli NCM3722 delta-clpP, growth: N-lim chemostat, doubling time 6 h
[3] = E. coli NCM3722 delta-hslV, growth: N-lim chemostat, doubling time 6 h
[4] = E. coli NCM3722 delta-lon, growth: N-lim chemostat, doubling time 6 h
[5] = E. coli NCM3722 delta-smpB, growth: N-lim chemostat, doubling time 6 h
[6] = wild type E. coli NCM3722, growth: C-lim chemostat, doubling time 3 h
[7] = wild type E. coli NCM3722, growth: C-lim chemostat, doubling time 6 h
[8] = wild type E. coli NCM3722, growth: C-lim chemostat, doubling time 12 h
[9] = wild type E. coli NCM3722, growth: N-lim chemostat, doubling time 6 h
[10] = wild type E. coli NCM3722, growth: N-lim chemostat, doubling time 12 h
[11] = wild type E. coli NCM3722, growth: P-lim chemostat, doubling time 6 h
[12] = wild type E. coli NCM3722, growth: P-lim chemostat, doubling time 12 h

Sequence	total protein half-life in vivo [1] [h]	total protein half-life in vivo [2] [h]	total protein half-life in vivo [3] [h]	total protein half-life in vivo [4] [h]	total protein half-life in vivo [5] [h]	total protein half-life in vivo [6] [h]	total protein half-life in vivo [7] [h]	total protein half-life in vivo [8] [h]	total protein half-life in vivo [9] [h]	total protein half-life in vivo [10] [h]	total protein half-life in vivo [11] [h]	total protein half-life in vivo [12] [h]
MSEQLVTPENVTTKDGKINLLDLNRQQMREFFKDLGEKPFRADQVMKWMYHYCCDNFDEMTDINKVLRGKLKEVAEIRAPEVVEEQRSSDGTIKWAIAVGDQRVETVYIPEDDRATLCVSSQVGCALECKFCSTAQQGFNRNLRVSEIIGQVWRAAKIVGAAKVTGQRPITNVVMMGMGEPLLNLNNVVPAMEIMLDDFGFGLSKRRVTLSTSGVVPALDKLGDMIDVALAISLHAPNDEIRDEIVPINKKYNIETFLAAVRRYLEKSNANQGRVTIEYVMLDHVNDGTEHAHQLAELLKDTPCKINLIPWNPFPGAPYGRSSNSRIDRFSKVLMSYGFTTIVRKTRGDDIDAACGQLAGDVIDRTKRTLRKRMQGEAIDIKAV	4.37 ± 0.19	2.76 ± 0.77	1.13 ± 0.07	1.57 ± 0.14	1.15 ± 0.025	1.35 ± 0.022	1.89 ± 0.12	2.442 ± 0.024	1.31 ± 0.027	1.88 ± 0.24	1.78 ± 0.32	2.3 ± 0.26
MIDYKKNLLFILVFISGFILFTVYSYTAEKMIYNETCTANWVIFNDQGRANLTIDFMYNKKNKTGTVALSGTWQQGNRESKSIRRNIEYTWIENYDTAHLTSKKVNKFEIMDQVDDDRLAQLIPDFYVFPEKSVSYNILKQGKHAFILSIGNRAIMHCAR								> 16				
MTAINRILIVDDEDNVRRMLSTAFALQGFETHCANNGRTALHLFADIHPDVVLMDIRMPEMDGIKALKEMRSHETRTPVILMTAYAEVETAVEALRCGAFDYVIKPFDLDELNLIVQRALQLQSMKKEIRHLHQALSTSWQWGHILTNSPAMMDICKDTAKIALSQASVLISGESGTGKELIARAIHYNSRRAKGPFIKVNCAALPESLLESELFGHEKGAFTGAQTLRQGLFERANEGTLLLDEIGEMPLVLQAKLLRILQEREFERIGGHQTIKVDIRIIAATNRDLQAMVKEGTFREDLFYRLNVIHLILPPLRDRREDISLLANHFLQKFSSENQRDIIDIDPMAMSLLTAWSWPGNIRELSNVIERAVVMNSGPIIFSEDLPPQIRQPVCNAGEVKTAPVGERNLKEEIKRVEKRIIMEVLEQQEGNRTRTALMLGISRRALMYKLQEYGIDPADV	5.23 ± 2.1	3.82	2.7	3.5	2.912 ± 0.0036	3.09 ± 0.26	5.56 ± 0.094	10.6 ± 2.5	3.16		4.99 ± 0.19	10.9 ± 1.7
MLSGKDLGRAIEQAINKKIASGSVKSKAEVARHFKVQPPSIYDWIKKGSISKDKLPELWRFFSDVVGPEHWGLNEYPIPTPTNSDTKSELLDINNLYQAASDEIRAIVAFLLSGNATEPDWVDHDVRAYIAAMEMKVGKYLKALESERKSQNITKTGT		4.75	5.53 ± 0.81	7.1	5.32		5.48	9.89	4.71	8.69	5.35	10.4 ± 2
MMITLRKLPLAVAVAAGVMSAQAMAVDFHGYARSGIGWTGSGGEQQCFQTTGAQSKYRLGNECETYAELKLGQEVWKEGDKSFYFDTNVAYSVAQQNDWEATDPAFREANVQGKNLIEWLPGSTIWAGKRFYQRHDVHMIDFYYWDISGPGAGLENIDVGFGKLSLAATRSSEAGGSSSFASNNIYDYTNETANDVFDVRLAQMEINPGGTLELGVDYGRANLRDNYRLVDGASKDGWLFTAEHTQSVLKGFNKFVVQYATDSMTSQGKGLSQGSGVAFDNEKFAYNINNNGHMLRILDHGAISMGDNWDMMYVGMYQDINWDNDNGTKWWTVGIRPMYKWTPIMSTVMEIGYDNVESQRTGDKNNQYKITLAQQWQAGDSIWSRPAIRVFATYAKWDEKWGYDYTGNADNNANFGKAVPADFNGGSFGRGDSDEWTFGAQMEIWW	6.61	> 8			6.71 ± 0.23	3.38 ± 0.6	6.85 ± 1.6	> 16	> 8	> 16	7.548 ± 0.042	> 16
MRNKPFYLLCAFLWLAVSHALAADSTITIRGYVRDNGCSVAAESTNFTVDLMENAAKQFNNIGATTPVVPFRILLSPCGNAVSAVKVGFTGVADSHNANLLALENTVSAASGLGIQLLNEQQNQIPLNAPSSALSWTTLTPGKPNTLNFYARLMATQVPVTAGHINATATFTLEYQ					5.58 ± 0.25	2.61	5.55	15.7	> 8	13.4	5.52	9.2
MHENQQPQTEAFELSAAEREAIEHEMHHYEDPRAASIEALKIVQKQRGWVPDGAIHAIADVLGIPASDVEGVATFYSQIFRQPVGRHVIRYCDSVVCHINGYQGIQAALEKKLNIKPGQTTFDGRFTLLPTCCLGNCDKGPNMMIDEDTHAHLTPEAIPELLERYK [P0AFD1]	5.62 ± 0.92	5.62 ± 0.45		5.97 ± 0.51	6.57 ± 0.34	2.65 ± 0.54	4.79 ± 0.22	8.87 ± 1.4	5.04 ± 0.18	10.3 ± 0.36	4.85 ± 0.61	11 ± 0.14
MANWQSIDELQDIASDLPRFIHALDELSRRLGLNITPLTADHISLRCHQNATAERWRRGFEQCGELLSENMINGRPICLFKLHEPVQVAHWQFSIVELPWPGEKRYPHEGWEHIEIVLPGDPETLNARALALLSDEGLSLPGISVKTSSPKGEHERLPNPTLAVTDGKTTIKFHPWSIEEIVASEQSA	5.34 ± 1.4	3.77 ± 0.15	2.73 ± 0.29	3.16 ± 0.24	3.04 ± 0.023	2.231 ± 0.0095	3.62 ± 1.4	5.25 ± 0.3	3.3	3.66	3.83	6.37 ± 1.2
MNFLAHLHLAHLAESSLSGNLLADFVRGNPEESFPPDVVAGIHMHRRIDVLTDNLPEVREAREWFRSETRRVAPITLDVMWDHFLSRHWSQLSPDFPLQEFVCYAREQVMTILPDSPPRFINLNNYLWSEQWLVRYRDMDFIQNVLNGMASRRPRLDALRDSWYDLDAHYDALETRFWQFYPRMMAQASRKAL	5.09 ± 0.57	2 ± 0.55	2.32	3.5 ± 0.25	3.83	2.18	4.23	6.12	3.3	4.2	3.04 ± 0.068	3.73 ± 1.6

Source: the supplement of paper PMC11246515
